Assay [1] has as its target T1, human carcinoembryonic antigen (human, UniProt P06731 35-685, 125I label (125I-CEA, the tracer in the radioimmunoassay)).
T1 construct: Used as a 125I-labelled tracer; also called CEA
T1 sequence (looked up): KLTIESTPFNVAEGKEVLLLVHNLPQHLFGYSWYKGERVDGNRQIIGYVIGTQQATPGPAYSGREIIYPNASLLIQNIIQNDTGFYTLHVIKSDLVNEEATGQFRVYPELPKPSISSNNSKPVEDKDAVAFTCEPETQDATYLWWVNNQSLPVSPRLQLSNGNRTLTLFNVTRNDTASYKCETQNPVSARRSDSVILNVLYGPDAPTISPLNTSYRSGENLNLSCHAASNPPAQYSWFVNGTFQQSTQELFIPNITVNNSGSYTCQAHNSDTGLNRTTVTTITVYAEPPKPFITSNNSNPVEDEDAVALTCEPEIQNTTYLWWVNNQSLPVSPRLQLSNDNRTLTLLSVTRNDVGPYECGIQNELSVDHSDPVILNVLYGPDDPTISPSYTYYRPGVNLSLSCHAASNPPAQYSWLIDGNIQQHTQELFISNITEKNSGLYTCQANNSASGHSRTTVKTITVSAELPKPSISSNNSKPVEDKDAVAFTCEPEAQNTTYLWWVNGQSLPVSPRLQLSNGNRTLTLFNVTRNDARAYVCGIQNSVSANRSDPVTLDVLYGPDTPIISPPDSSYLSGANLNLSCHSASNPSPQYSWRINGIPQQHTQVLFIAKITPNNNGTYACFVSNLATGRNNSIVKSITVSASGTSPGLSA
Description: solid phase radioimmunoassay: culture supernatant, 125I-CEA, Sepharose-bound goat anti-human IgG.

The target in assay [2] is T1, human carcinoembryonic antigen. The assay is described as follows: affinity comparison by radioimmunoassay and Scatchard analysis; Ka not given.

B1: chimeric antibody XCEM 449 (antibody, V domains shown)
VH: DVQLVESGGGLVQPGGSRKLSCAASGFTFSNFGMHWIRQAPEKGLEWVAYISGGSSTIYYADTVKGRFTISRDNPRNTLFLQMTSLRSEDTAMFYCARDYYANNYWYFDVWGAGTTVTVSS
VL: DIVMTQSQKFMSTSVGDRVSITCKASQNVRTAVAWYQQKPGQSPKALIYLASNRYTGVPDRFTGSGSGTDFTLTITNVQSEDLADYFCLQHWNYPLTFGAGTKLELKR
notes: the one-letter code is converted from the printed three-letter code; also called CEM-chimeric antibody; chimeric CEM antibody
Regarding B1, in assay [1], the binding result is listed as “binds”.

B2: murine monoclonal antibody of hybridoma CEM 231.6.7 (antibody, V domains shown)
VH: B1 VH
VL: B1 VL
notes: also called murine antibody counterparts; ATCC HB9620
On to B2, for which the binding result in assay [2] is reported as “binds”.
